The labels stand for the following.
B1: Ras-related protein Rab-5A (Homo sapiens), P20339 (parent)
chain: MASRGATRPNGPNTGNKICQFKLVLLGESAVGKSSLVLRFVKGQFHEFQESTIGAAFLTQTVCLDDTTVKFEIWDTAGQERYHSLAPMYYRGAQAAIVVYDITNEESFARAKNWVKELQRQASPNIVIALSGNKADLANKRAVDFQEAQSYADDNSLLFMETSAKTSMNVNEIFMAIAKKLPKNEPQNPGANSARGRGVDLTEPTQPTRNQCCSN
partner: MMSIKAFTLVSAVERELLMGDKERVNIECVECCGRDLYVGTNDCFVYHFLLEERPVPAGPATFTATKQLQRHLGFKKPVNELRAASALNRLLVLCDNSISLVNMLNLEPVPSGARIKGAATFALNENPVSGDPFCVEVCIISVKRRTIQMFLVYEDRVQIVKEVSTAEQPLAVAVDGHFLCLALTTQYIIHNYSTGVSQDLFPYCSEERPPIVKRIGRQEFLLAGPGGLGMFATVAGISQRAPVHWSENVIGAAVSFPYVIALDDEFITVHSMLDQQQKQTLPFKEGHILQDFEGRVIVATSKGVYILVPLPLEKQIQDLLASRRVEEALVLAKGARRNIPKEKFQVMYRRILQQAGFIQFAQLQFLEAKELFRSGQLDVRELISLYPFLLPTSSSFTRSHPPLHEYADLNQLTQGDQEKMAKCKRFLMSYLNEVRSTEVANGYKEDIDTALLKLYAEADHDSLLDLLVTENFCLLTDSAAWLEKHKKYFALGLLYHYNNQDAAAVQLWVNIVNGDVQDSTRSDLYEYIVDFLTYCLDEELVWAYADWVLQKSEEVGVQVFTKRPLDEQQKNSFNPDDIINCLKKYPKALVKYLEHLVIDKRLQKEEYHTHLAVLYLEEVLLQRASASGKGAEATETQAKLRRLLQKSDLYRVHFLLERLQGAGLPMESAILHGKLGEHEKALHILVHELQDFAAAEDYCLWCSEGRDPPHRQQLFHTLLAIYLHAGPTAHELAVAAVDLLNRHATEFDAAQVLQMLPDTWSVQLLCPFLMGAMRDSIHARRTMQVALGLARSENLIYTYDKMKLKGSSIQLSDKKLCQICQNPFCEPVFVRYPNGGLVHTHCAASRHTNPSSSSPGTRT

In the assay the parent is B1. The note with it: with tgfa1_human TGFBRAP1, Q8WUH2.
In the case of S34N, the “effect of a mutation on the interaction” value was “decreasing interaction”.
